Target: SARS-CoV-2 spike protein receptor binding domain, Delta variant subvariant Δ1 (B.1.617.2) (UniProt P0DTC2)
Assay: BLI
Conditions: parent: 168.4

Work on ab8 nanobody, wild type E127W yielded a Kd of 0.59 nM.

Reference: paper PMC11481066
